Bridge positions count the residues as written; N and C are the ends.
B1: LCP W, loop-derived cyclic peptide based on spike residues 480-488 of the Wuhan strain (peptide)
peptide: H-CNGVEGFNC-NH2
modifications: disulfide 1-9
SMILES: CC(C)[C@@H]1NC(=O)CNC(=O)[C@H](CC(N)=O)NC(=O)[C@@H](N)CSSC[C@@H](C(N)=O)NC(=O)[C@H](CC(N)=O)NC(=O)[C@H](Cc2ccccc2)NC(=O)CNC(=O)[C@H](CCC(=O)O)NC1=O
notes: also called Wuhan loop peptide; Wuhan peptide
B2: LCP O, loop-derived cyclic peptide based on spike residues 480-488 of the Omicron strain (peptide)
peptide: H-CNGVAGFNC-NH2
modifications: disulfide 1-9
SMILES: CC(C)[C@@H]1NC(=O)CNC(=O)[C@H](CC(N)=O)NC(=O)[C@@H](N)CSSC[C@@H](C(N)=O)NC(=O)[C@H](CC(N)=O)NC(=O)[C@H](Cc2ccccc2)NC(=O)CNC(=O)[C@H](C)NC1=O
notes: also called Omicron loop peptide; Omicron peptide

Biological target: T1, human glucose-regulated protein GRP78 (human, UniProt P11021 19-654)
T1 construct: also called heat shock protein A5; HSPA5; source: Escherichia coli, recombinant; bought: Abcam
Test: SPR
Settings: both partners purified

T1 sequence (P11021 19-654): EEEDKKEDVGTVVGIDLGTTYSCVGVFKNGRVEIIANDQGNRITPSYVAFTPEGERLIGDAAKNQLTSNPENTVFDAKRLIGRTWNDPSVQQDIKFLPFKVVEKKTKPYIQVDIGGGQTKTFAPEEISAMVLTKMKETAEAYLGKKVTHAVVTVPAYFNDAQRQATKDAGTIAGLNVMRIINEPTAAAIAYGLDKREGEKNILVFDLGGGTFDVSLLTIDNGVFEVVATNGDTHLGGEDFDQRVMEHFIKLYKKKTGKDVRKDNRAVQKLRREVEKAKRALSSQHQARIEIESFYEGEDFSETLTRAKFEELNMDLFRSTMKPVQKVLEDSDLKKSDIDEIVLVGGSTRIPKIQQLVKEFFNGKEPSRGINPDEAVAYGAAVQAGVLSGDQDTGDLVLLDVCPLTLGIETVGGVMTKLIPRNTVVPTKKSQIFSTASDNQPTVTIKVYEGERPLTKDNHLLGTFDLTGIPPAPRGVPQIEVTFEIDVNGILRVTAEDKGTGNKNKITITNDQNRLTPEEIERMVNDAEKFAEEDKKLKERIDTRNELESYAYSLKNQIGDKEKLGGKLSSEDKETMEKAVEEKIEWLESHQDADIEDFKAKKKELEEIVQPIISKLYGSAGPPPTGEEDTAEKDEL

Binder | IC50 [nM] | Kd [nM]
B1 | 763 | –
B2 | 693 | 2000
